Test results published in patent publication US20250179208A1 (ZONHON BIOPHARMA INSTITUTE, published 2025).
Where two headings read alike, the source gives them in different places.

T1: CD3 protein
T1 chain 1: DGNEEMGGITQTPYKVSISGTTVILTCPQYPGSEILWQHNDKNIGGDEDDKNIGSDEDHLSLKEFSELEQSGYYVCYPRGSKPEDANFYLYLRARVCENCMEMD
T1 chain 2: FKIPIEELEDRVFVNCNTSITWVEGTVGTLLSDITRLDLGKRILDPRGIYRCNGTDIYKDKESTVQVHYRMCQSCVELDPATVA


What was measured:
[1] = molecular target: T2, CD26 on CD26 positive human tumor cells (human, UniProt P27487 1-766); assay: cell-based or functional assay
[2] = molecular target: T2, CD26 on CD26 positive human tumor cells; assay: cell-based or functional assay; remark: listed apart in the source
[3] = molecular target: T2, CD26 on CD26 positive human tumor cells; assay: cell-based or functional assay; remark: listed apart in the source
[4] = molecular target: T2, CD26 on CD26 positive human tumor cells; assay: cell-based or functional assay; remark: listed apart in the source
CD3 protein [5] = molecular target: T1, CD3 protein; assay: BLI (Octet), biotinylated CD3 on SA sensor, antibody 200-1600 nM
Method: CD3 protein was biotinylated with EZ-link NHS-PEG12-Biotin. Biotinylated CD3 protein was immobilized to SA biosensor. Equilibrated in 1×Kinetics solution. The CD3 immobilized to SA biosensor was combined with the humanized bispecific antibody solution to be detected. The concentration gradient of humanized bispecific antibody was 200 nM, 400 nM, 800 nM, and 1600 nM. The biosensor was dissociated in 1×Kinetics solution. Fortebio Data Analysis 8.0 software was used for data analysis and affinity constant values were calculated.

[6] = molecular target: T3, CD26 protein (recombinant human CD26) (human, UniProt P27487 29-766, limits assumed); assay: BLI (Octet), biotinylated CD26 on SA sensor, antibody 31.3-500 nM
T3 construct: Amine-coupled, biotinylated or HRP-labeled according to the assay; also called DPP4; rCD26
Method: CD26 protein was biotinylated with EZ-link NHS-PEG12-Biotin. Biotinylated CD26 protein was immobilized to SA biosensor. Equilibrated in 1×Kinetics solution. The CD26 immobilized to SA biosensor was combined with the antibody solution to be detected. The concentration gradients of the antibody solution were 31.3 nM, 62.5 nM, 125 nM, 250 nM, and 500 nM. The biosensor was dissociated in 1×Kinetics solution. Fortebio Data Analysis 8.0 software was used for data analysis and affinity constant values were calculated.

CD3 protein [7] = molecular target: T1, CD3 protein; assay: BLI (Octet QKe), CD3 amine-coupled on AR2G sensor, antibody at 181.8 nM
Method: The affinity of chimeric antibodies to antigen protein CD3 was determined by Fortebio Intermolecular Interaction Octet QKe instrument. First, the amino-coupled biosensor AR2G was activated with EDC/s-NHS, and the activated biosensor AR2G was solidified in CD3 protein solution diluted with 10 mM sodium acetate (pH 5.0) solution. The biosensor solidified with CD3 was quenched in 1M ethanolamine (pH8.5) solution. Then equilibrated in 1× kinetic solution. After equilibration, it was bound to bispecific antibody solution. They were dissociated in 1×kinetic solution. Fortebio Data Analysis 8.0 software was used to analyze the data and calculate the affinity constant value (KD).

[8] = molecular target: T3, CD26 protein (recombinant human CD26); assay: BLI (Octet QKe), CD26 amine-coupled on AR2G sensor, antibody at 181.8 nM
Method: The affinity of the chimeric antibody to the antigen protein CD26 was detected by Fortebio Intermolecular Interaction Octet QKe instrument. First, the amino-coupled biosensor AR2G was activated with EDC/s-NHS, and the activated biosensor AR2G was solidified in CD26 protein solution diluted with 10 mM sodium acetate (pH 5.0) solution. The biosensor solidified with CD26 was quenched in 1M ethanolamine (pH8.5) solution. Then equilibrated in 1× kinetic solution. After equilibration, it was bound to a humanized bispecific antibody solution. It was dissociated in 1× kinetic solution. Fortebio Data Analysis 8.0 software was used to analyze the data and calculate the affinity constant (KD), association rate constant (kon) and dissociation rate constant (kdis). The Response value represents the number of antibody molecules that can bind to the antigen. Kon indicates the binding speed of the antibody to the corresponding receptor. Kdis represents the dissociation speed of antibody from corresponding receptor. NA indicates no valid data.

Binder	Kd (CD3 protein [5])	koff (CD3 protein [5])	kon (CD3 protein [5])	Kd [6]	koff [6]	kon [6]	cell lysis rate, antibody mediated PBMC cytotoxic effect on 786-0 cells (100 ng/ml, 5 h) [1]	IC50 of antibody mediated PBMC cytotoxicity against 786-0 cells [2]	IC50 of antibody mediated PBMC cytotoxicity against NCI-H226 cells [2]	IC50 of antibody mediated PBMC cytotoxicity against OS-RC-2 cells [2]	IC50 of antibody mediated PBMC cytotoxicity against PC-3 cells [2]	EC50 of antibody mediated cytotoxicity of PBMC against 786-0-LUC cells (luciferase reporter) [4]	EC50 of antibody mediated cytotoxicity of PBMC against A498-LUC cells (luciferase reporter) [4]	also measured
No. 62 mouse antibody (antibody, V domains shown) VH: EVQLQQSGAELVKPGASVKLSCTASGFNIKDTYIYWVKQRPGQGLEWIGRIEPMNGNTKYDPKFQGKATMTANTSSNTAYLHLSSLASEDTAVYFCSRGGWLLLYVMDYWGQGTSVTVSS VL: DIVMTQAAPSVSVTPGESVSISCRSDKSLLHSNGNTYLYWFLQRPGQSPQVLIYRMSNLASGVPDRFSGSGSGTGFTLRVSRVEAEDVGVYYCFQQLEYPYTFGGGTKLEIKR							53.1%							
No. 212 mouse antibody (antibody, V domains shown) VH: EVQLQEAGPSLVKPSQTLSLTCFVTGDSITSGYWHWIRKFPGNKLEYMGYINYSGYTYYNPSLKSRFSITRDTSKNQYYLQLNSVTTEDTATYYCTSERNWGAFAYWGQGTLITVSS VL: ENVLTQSPAIMSASPGEKVTMTCRASSSVISTYLHWYQQKSGASPKLWIYSTSNLASGVPARFSGSGSGTSYSLTISSVEAEDAATYYCQQFSGYPYTFGGGTKLEIK							11.3%							
YS110 (humanized anti-CD26 full-length IgG antibody) (antibody, V domains shown) VH: EVQLVESGAGVKQPGGTLRLTCTASGFSLTTYGVHWVRQAPGKGLEWVGVIWGDGRTDYDAAFMSRVTISKDTSKSTVYLQMNSLRAEDTAVYYCMRNRHDWFDYWGQGTTVTVSS VL: DILLTQSPSSLSATPGERATITCRASQGIRNNLNWYQQKPGQAPRLLIYYSSNLQSGVPSRFSGSGSGTDFTLTISRLQPEDVAAYYCQQSIKLPFTFGSGTKVEIK							56.6%	> 100 ng/mL	> 100 ng/mL	> 100 ng/mL	> 100 ng/mL			
17G105 (anti-CD26-CD3 chimeric bispecific antibody derived from No. 72 mouse antibody) (bispecific antibody, also called chimeric BiTE) DIVLTQSPASLAVSLGQRATISCRASESVEYYGTSLMQWYQQKPGQPPKLLIYTASNVESGVPVRFSGSGSGTDFSLNIHPVEEDDIAMYFCQQSRKVPYTFGGGTKLEIKGGGGSGGGGSGGGGSQVQLQQSGPELMKPGASVKISCKATGYSFSGFWIEWVKQRPGHGLEWIGEILPGSGASNYHENFKGRATITADTSANTAYMQLRSLTSEDSAVYYCARERYYGSKYFDVWGAGTTVTVSSGGGGSDVQLVQSGAEVKKPGASVKVSCKASGYTFTRYTMHWVRQAPGQGLEWIGYINPSRGYTNYADSVKGRFTITTDKSTSTAYMELSSLRSEDTATYYCARYYDDHYCLDYWGQGTTVTVSSGGGGSGGGGSGGGGSDIVLTQSPATLSLSPGERATLSCRASQSVSYMNWYQQKPGKAPKRWIYDTSKVASGVPARFSGSGSGTDYSLTINSLEAEDAATYYCQQWSSNPLTFGGGTKVEIK														Kd (CD3 protein [7]): 2.18 nM; koff (CD3 protein [7]): 0.000672 s⁻¹; kon (CD3 protein [7]): 309000 M⁻¹ s⁻¹; Kd [8]: 39.3 nM; Response [8]: 0.498; koff [8]: 0.00126 s⁻¹; kon [8]: 32000 M⁻¹ s⁻¹

Second part, led by results:

Kd (CD3 protein [5])	koff (CD3 protein [5])	kon (CD3 protein [5])	Kd [6]	koff [6]	kon [6]	Binder	cell lysis rate, antibody mediated PBMC cytotoxic effect on 786-0 cells (100 ng/ml, 5 h) [1]	IC50 of antibody mediated PBMC cytotoxicity against 786-0 cells [2]	IC50 of antibody mediated PBMC cytotoxicity against NCI-H226 cells [2]	IC50 of antibody mediated PBMC cytotoxicity against OS-RC-2 cells [2]	IC50 of antibody mediated PBMC cytotoxicity against PC-3 cells [2]	EC50 of antibody mediated cytotoxicity of PBMC against 786-0-LUC cells (luciferase reporter) [4]	EC50 of antibody mediated cytotoxicity of PBMC against A498-LUC cells (luciferase reporter) [4]	also measured
0.751 nM	0.000178 s⁻¹	238000 M⁻¹ s⁻¹	0.914 nM	8.45e-05 s⁻¹	92400 M⁻¹ s⁻¹	19G294 (anti-CD26-CD3 humanized bispecific antibody derived from No. 62 mouse antibody) (bispecific antibody, also called 19G294 BiTE) DIVMTQSPSSLSVTPGERVSISCRSDKSLLHSNGNTYLYWFLQKPGQSPQVLIYRMSNLASGVPDRFSGSGSGTDFTLTISRVEAEDVGVYYCFQQLEYPYTFGQGTKLEIKGGGGSGGGGSGGGGSEVQLVQSGAELVKPGASVKLSCAASGFNIKDTYIYWVRQAPGQGLEWVGRIEPMNGNTKYDPKFQGRFTMTANTSKNTAYLQLSSLRSEDTAVYYCSRGGWLLLYVMDYWGQGTLVTVSSGGGGSDVQLVQSGAEVKKPGASVKVSCKASGYTFTRYTMHWVRQAPGQGLEWIGYINPSRGYTNYADSVKGRFTITTDKSTSTAYMELSSLRSEDTATYYCARYYDDHYCLDYWGQGTTVTVSSGGGGSGGGGSGGGGSDIVLTQSPATLSLSPGERATLSCRASQSVSYMNWYQQKPGKAPKRWIYDTSKVASGVPARFSGSGSGTDYSLTINSLEAEDAATYYCQQWSSNPLTFGGGTKVEIK		0.26 ng/mL	0.752 ng/mL	0.545 ng/mL	0.22 ng/mL	1.43 ng/mL	4.15 ng/mL	IC50 of antibody mediated PBMC cytotoxicity against HCC 827 cells [2]: 0.546 ng/mL; IC50 of antibody mediated PBMC cytotoxicity against NCI-H2052 cells [2]: 5.05 ng/mL; EC50 of antibody mediated cytotoxicity of PBMC against 786-0-LUC cells (luciferase reporter) [3]: 2.62 ng/mL; EC50 of antibody mediated cytotoxicity of PBMC against A498-LUC cells (luciferase reporter) [3]: 3.21 ng/mL
0.683 nM	8.71e-05 s⁻¹	128000 M⁻¹ s⁻¹	0.352 nM	4.01e-05 s⁻¹	114000 M⁻¹ s⁻¹	21G587 (19G294 anti-CD26 scFv joined to the WBP3311_2.306.4 anti-CD3 scFv) (bispecific antibody) EVQLVQSGAELVKPGASVKLSCAASGFNIKDTYIYWVRQAPGQGLEWVGRIEPMNGNTKYDPKFQGRFTMTANTSKNTAYLQLSSLRSEDTAVYYCSRGGWLLLYVMDYWGQGTLVTVSSGGGGSGGGGSGGGGSDIVMTQSPSSLSVTPGERVSISCRSDKSLLHSNGNTYLYWFLQKPGQSPQVLIYRMSNLASGVPDRFSGSGSGTDFTLTISRVEAEDVGVYYCFQQLEYPYTFGQGTKLEIKGGGGSQVQLVQSGAEVKKPGSSVKVSCKASGFAFTDYYIHWVRQAPGQGLEWMGWISPGNVNTKYNENFKGRVTITADKSTSTAYMELSSLRSEDTAVYYCARDGYSLYYFDYWGQGTLVTVSSGGGGSGGGGSGGGGSDIVMTQSPDSLAVSLGERATINCKSSQSLLNSRTRKNYLAWYQQKPGQPPKLLIYWASTRQSGVPDRFSGSGSGTDFTLTISSLQAEDVAVYYCTQSHTLRTFGGGTKVEIK						2.49 ng/mL	5.4 ng/mL	
